Molecular target: V5-tagged cdN protein (human) (UniProt Q8TCD5)
Chain of UniProt Q8TCD5 (Q8TCD5 whole entry): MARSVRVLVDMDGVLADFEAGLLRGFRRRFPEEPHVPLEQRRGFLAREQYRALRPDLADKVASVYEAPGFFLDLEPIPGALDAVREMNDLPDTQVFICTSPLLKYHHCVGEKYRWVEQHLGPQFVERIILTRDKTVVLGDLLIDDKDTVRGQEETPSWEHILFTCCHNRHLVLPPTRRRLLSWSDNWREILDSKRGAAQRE

“myc-tagged full-length NS3/4A protein (natural protein)” gave a 5'(3')-deoxyribonucleotidase activity (dephosphorylation of dUMP) in lysates of HuH7 cells with stable HCV NS3/4A expression, compared with cells with stable EGFP expression of 70%.

Source: PMC3706368
